The target in the assay is human Replication Factor C (hRFC) with RFC1ΔN555 (human) (UniProt P35251).

Experimental findings from paper doi:10.1101/2020.02.18.953257 are described below.

Consider “S228I-PCNA (from UniProt P12004 1-261) (natural protein)”, for which the apparent Kd from hRFC ATPase activity as a function of PCNA concentration turned out to be 120 nM.
